To fix the notation:
B1: human MA39 scFv (anti-CEA single-chain antibody fragment) (scFv, V domains shown)
VH: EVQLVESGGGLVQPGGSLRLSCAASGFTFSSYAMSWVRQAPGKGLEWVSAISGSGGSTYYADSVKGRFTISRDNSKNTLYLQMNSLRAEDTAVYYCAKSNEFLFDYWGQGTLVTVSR
VL: SSELTQDPAVSVALGQTVRITCQGDSLRSYYASWYQQKPGQAPVLVIYGKNNRPSGIPDRFSGSSSGNTASLTITGAQAEDEADYYCNSSYPWLPYVVFGGGTKLTVL
notes: clone from the ETH-2 synthetic human scFv library (DP47 heavy chain; DPK22 or DPL16 light chain, randomised CDR3s); the ELISA methods use soluble scFv; The methods name the host once as 'HB121'; also called scFv MA39; M39; source: E. coli HB2151, periplasmic extract, purified (Ni-NTA agarose); also culture supernatant
B2: B3 (antibody, V domains shown)
VH: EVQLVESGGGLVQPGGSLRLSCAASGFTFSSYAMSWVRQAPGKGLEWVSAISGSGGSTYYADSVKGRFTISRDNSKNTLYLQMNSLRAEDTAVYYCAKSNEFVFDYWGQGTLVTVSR
VL: SSELTQDPAVSVALRQTVRITCQRDSLRSYYASWYQQKPGQAPVLVIYGKNNRPSGIPDRFSGSSSGNTASLTITGAQAEDEADYYCNSSYPWLPYVVFGGGTKLTVL
B3: E5 (antibody, V domains shown)
VH: EVQLAESGGGLVQPGGSLRLSCAASGLTFSSYGMSTVRQAPGKGLEWVSAISGSGGSTYYADSVKGRFTISRDNSKNTLYLQMNSLRAEDTAVYYCAKSNEFLFDYWGQGTLVTVSR
VL: SSELTQDPAVSVASGQTVRITCQGDSLRSSYASWYQRKPGQAPVLVIYGKNNRPSGIPDRFSGSSSGSTASLTITGAQAEDEADYYCNSSYAWLPYVVFGGGTKLTVL
B4: E9 (antibody, V domains shown)
VH: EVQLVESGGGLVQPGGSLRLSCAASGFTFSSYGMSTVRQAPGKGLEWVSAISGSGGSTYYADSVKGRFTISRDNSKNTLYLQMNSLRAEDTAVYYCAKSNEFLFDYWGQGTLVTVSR
VL: SSELTQDPAVSVALGQTVRITCQGDSLRSSYASWYQQKPGQAPVLVIYGKNNRPSGIPGRFSVSSSGNTASLTITGAQAEDEADYYCNSSYAWLPYVVFGGGTKLTVL
B5: E1 (antibody, V domains shown)
VH: EVQLAESGGGLVQPGGSLRLPCAAPGFTFSSYAMSTVRQAPGKGLEWVSAISGSGGSTYYADSVKGRFTISRDNSKNTLYLQMNSLRAEDTAVYYCAKSNEFLFDYWGQGTLVTVSR
VL: SSELTQDPAVSVALGQTVRITCRGDSLRSSYASWYQQKPGQAPVLVIYGKNNRPSGIPDRFSVSSSGNTASLTITGAQAEDEADYYCNSSYAWPPYVVFGGGTKLTVL
B6: E14 (antibody, V domains shown)
VH: EVQLAESGGGLVQPGGSLRLSCAASGFTFSSYAMSTVRQAPGKGLEWVSAISGSGGSTYYADSVMGRFTISRDNSKNTLYLQMNSLRAEDTAVYYCAKSNEFLFDYWGQGTLVTVSR
VL: SSELTQDPAVSVALGQTVRITCQGDSLRGSYASWHQQKPGQAPVLVIYGKNNRPSGIPDRFSVSSSGNTASLTITGAQAEDEADYYCNSSYAWLPYVVFGGGTKLTVL
B7: B17 (antibody, V domains shown)
VH: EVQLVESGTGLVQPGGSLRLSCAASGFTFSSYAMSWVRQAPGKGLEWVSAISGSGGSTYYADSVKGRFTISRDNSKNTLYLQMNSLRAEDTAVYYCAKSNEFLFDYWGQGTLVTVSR
VL: SSELTQDPAVSVALGQTVRITCQGDSLRSYYASWYQQKPGQAPVLVIYGKNNRPSGIPDRFSGSSSGNTASLTITGAQAEDEADYYCNSSYPWLPYVVFGGGTKLTVL
B8: E4 (antibody, V domains shown)
VH: EVQLAESGGGLVQPGGSLRLSCAASGFTFSSYGMSTVRQAPGKGLEWVSAISGSGGSTYYADSVKGRFTISRDNSKNTLYLQMNSLRAEDTAVYYCAKSNEFLFDYWGQGTLVTVSR
VL: LSELTQDPAASVALGQTVRITCQGDSLRSSYASWYQQKPGQAPVLVIYGKNNRPPGIPDRFSVSSSGNTASLTITGAQAEDEADYYCNSSYAWLPYVVFGGGTKLTVL
B9: E13 (antibody, V domains shown)
VH: EVQLAEPGGGLVQPGGSLRLSCAASGLTFSSYAMSTIRQAPGKGLEWVSAISGSGGSTYYADSVKGRFTISRDNSENTLYLQMNSLRAEDTAVYYCAKSNEFLFDYWGQGTLVTVSR
VL: SSELTQDPAVSVALGQAVRITCQGDSLRSTYASWYQQKPGQAPVLVIYGKNNRPSGIPDRFSGSSSGNTASLTIAGAQAEDEADYYCNSSYAWLPYVVFGGGTKLTVL
B10: E3 (antibody, V domains shown)
VH: EVQLAESGGGLVRPGGSLRLSCAASGFTFSSYAMSTVRQAPGKGLEWVSAISGSGGSTYYADSVKGRFTISRDNSENTLYLQMNSLRAEDTAVYYCAKSNEFLFDYWGQGTLVTVSR
VL: SSELTQDPAVSVALGQTVRITCQGDSLRSSYASWYQQKPGQAPVLVIYGKNNRPSGIPDRFSGSSSGNTASLTITGAQAEDEADYYCNSSYAWLPYVVFGGGTKLTVL
B11: B5 (antibody, V domains shown)
VH: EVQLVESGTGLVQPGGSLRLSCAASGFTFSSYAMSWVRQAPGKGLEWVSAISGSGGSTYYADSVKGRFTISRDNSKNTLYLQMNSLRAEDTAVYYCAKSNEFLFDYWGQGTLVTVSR
VL: SSELTQDPAVPVALRQTVRITCQGDSLRSYYASWYQQKPGQAPVLVIYGKNNRPSGIPDRFSGSSSGNTASLTITGAQAEDEADYYCNSSYPWLPYVVFGGGTKLTVL
B12: E6 (antibody, V domains shown)
VH: EVQLVETGGGLVQPGGSLRLSCAASGFAFSSYGMSTVRQAPGKGLEWVSAISGSGGSTYYADSVKGRFTISRDNSKNTLYLQMNSLRAEDTAVYYCAKSNEFLFDYWGQGTLVTVSR
VL: SSELTQDPAVSVALGQTVRITCQGDSLRSSHASWYQQKPGRAPVLVIYGKNNRPSGIPARFSASSSGNTASLTITGAQAEDEADYYCNSSYAWLPYVVFGGGTKLTVL
B13: E15 (antibody, V domains shown)
VH: EVQLVESGGGLVQPGGSLRLSCTASGFTFSRYAMSTVRQAPGKGLEWVSAISGSGGSTYYADSVKGRFTISRDNSKNTLYLQMNSLRAEDTAVYYCAKSNEFLFDYWGQGTLVTVSR
VL: SSELTQDPAVSVALGQTVRITCQGDSLRSSYASWYQQKPGQAPVLVIYGKNNRPSGIPDRFSVSSSGNTASLTITGAQAEDEADYYCNSSYAWLPYVVFGGGTKLTVL
B14: E2 (antibody, V domains shown)
VH: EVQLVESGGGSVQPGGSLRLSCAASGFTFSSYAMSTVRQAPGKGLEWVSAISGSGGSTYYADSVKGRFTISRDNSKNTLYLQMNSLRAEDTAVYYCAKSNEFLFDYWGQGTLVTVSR
VL: SSELTQDPAVSAAWGQTVRITCRGGSLGSSRASWYQQKPGQAPVLVIYGRNNRPSGIPDRFSGSSSGNTASLAITGAQAEDEADYYCNSSYAWLPYVVFGGGTKLTVL

The values that follow come from paper PMC1402309, “Selection, affinity maturation, and characterization of a human scFv antibody against CEA protein” (BMC Cancer, 2006).

T1 sequence (P06731 35-685): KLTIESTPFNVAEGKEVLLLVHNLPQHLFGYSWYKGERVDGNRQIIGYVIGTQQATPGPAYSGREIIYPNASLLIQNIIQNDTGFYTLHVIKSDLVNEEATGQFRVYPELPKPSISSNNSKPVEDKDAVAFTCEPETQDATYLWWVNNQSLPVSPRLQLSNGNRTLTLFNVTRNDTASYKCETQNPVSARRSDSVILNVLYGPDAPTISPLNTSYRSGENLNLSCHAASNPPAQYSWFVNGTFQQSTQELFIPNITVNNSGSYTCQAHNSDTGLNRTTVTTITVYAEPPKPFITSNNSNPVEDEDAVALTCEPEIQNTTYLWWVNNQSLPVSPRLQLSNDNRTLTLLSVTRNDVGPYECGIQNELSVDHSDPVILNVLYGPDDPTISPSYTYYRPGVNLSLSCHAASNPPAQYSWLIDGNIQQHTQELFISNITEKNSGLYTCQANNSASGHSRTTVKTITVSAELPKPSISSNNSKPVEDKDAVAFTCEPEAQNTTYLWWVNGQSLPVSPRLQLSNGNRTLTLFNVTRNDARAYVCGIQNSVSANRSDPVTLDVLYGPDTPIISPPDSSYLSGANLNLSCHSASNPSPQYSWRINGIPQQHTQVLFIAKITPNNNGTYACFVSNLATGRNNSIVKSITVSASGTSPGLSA

The first test addresses T1, carcinoembryonic antigen (CEA), human purified protein (Sigma) (Homo sapiens, UniProt P06731, biotin (biotinamidohexanoic acid N-hydroxysuccinimide ester) for selection and for the ELISA on streptavidin-coated plates; biotin-free for directly coated plates).
T1 construct: carcinoembryonic antigen (CEA, CEACAM5), human, purified glycoprotein of about 200 kDa; also called CEACAM5; CD66e; source: bought: Sigma
Briefly: ELISA; biotinylated CEA (1 ug/mL) on streptavidin-coated plates; scFv in blocking buffer (MPBS) 1 h at RT; anti-FLAG M2 and anti-mouse HRP. To be noted: one partner purified. Background: In an ELISA, binding on a coated surface is turned into a signal by an enzyme label.
Take B1: the binding result is “binds”.

A further test has as its target T1, carcinoembryonic antigen (CEA), human ….
Experiment: not given
Settings: not given
For B2, the binding result is recorded as “binds”.

On to B3, for which the binding result is given as “binds”.

B4: the binding result is listed as “binds”. Still for that read-out and setting: the result for B5 reads “binds”; that for B6, “binds”.

Regarding B7, the binding result was “binds”. Take B8: the binding result was “binds”.

With B9, the binding result was “binds”. Take B10: the binding result is “binds”. Same read-out and setting: the result for B11 reads “binds”. As to B12, the binding result is listed as “binds”.

On to B13, for which the binding result is “binds”.

As for B14, the binding result is recorded as “binds”.

Another test deals with T2, CEA, endogenous in human colon carcinoma LoVo cells (Homo sapiens (LoVo cells), UniProt P06731).
T2 construct: carcinoembryonic antigen (CEA, CEACAM5), endogenous in LoVo colorectal carcinoma cells; which member carries the signal on cells is not separated; also called CEA in LoVo cells; 200 kDa band of LoVo cellular extract; source: endogenous, LoVo cells (on cells) and LoVo cellular extract
T2 sequence (P06731 35-685): as above
Briefly: flow cytometry on cells; living/intact human cells; 5 ug/mL scFv in PBS 1% BSA, 1 h at RT; anti-FLAG and FITC goat anti-mouse IgG; grades by percent stained cells. To be noted: one partner purified. A general note: A flow cytometer gives signals particle by particle.
On to B1, for which the binding result is listed as “binds”.
